Measured values from article PMC12055985.

Molecular target: gH/gL expressed on the surface of CHO-K1 cells (UniProt P89445)
Assay: ELISA

Chain of gH/gL expressed on the surface of CHO-K1 cells (P89445 19-838, chain 1 of 2): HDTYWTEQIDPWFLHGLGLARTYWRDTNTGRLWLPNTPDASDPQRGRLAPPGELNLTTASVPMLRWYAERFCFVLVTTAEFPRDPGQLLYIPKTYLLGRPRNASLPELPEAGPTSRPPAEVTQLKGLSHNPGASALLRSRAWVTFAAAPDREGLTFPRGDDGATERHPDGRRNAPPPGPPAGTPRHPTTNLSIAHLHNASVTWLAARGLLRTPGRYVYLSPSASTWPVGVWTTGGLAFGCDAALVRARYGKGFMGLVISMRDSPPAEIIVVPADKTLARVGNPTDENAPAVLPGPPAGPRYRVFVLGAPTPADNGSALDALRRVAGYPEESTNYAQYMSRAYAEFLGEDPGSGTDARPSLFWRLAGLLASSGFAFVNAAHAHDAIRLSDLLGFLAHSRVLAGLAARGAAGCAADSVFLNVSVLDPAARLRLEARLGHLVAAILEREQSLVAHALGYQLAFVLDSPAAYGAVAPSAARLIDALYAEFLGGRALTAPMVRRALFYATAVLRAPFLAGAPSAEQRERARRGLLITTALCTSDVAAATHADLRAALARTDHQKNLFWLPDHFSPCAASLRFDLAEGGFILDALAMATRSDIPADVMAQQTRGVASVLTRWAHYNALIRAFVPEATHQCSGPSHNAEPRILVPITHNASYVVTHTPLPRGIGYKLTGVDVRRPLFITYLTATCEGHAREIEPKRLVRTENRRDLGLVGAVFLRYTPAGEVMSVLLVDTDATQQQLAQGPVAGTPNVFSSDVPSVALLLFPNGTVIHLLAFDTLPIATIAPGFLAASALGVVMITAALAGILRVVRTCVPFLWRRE
Chain of gH/gL expressed on the surface of CHO-K1 cells (P28278 17-224, chain 2 of 2, further chain): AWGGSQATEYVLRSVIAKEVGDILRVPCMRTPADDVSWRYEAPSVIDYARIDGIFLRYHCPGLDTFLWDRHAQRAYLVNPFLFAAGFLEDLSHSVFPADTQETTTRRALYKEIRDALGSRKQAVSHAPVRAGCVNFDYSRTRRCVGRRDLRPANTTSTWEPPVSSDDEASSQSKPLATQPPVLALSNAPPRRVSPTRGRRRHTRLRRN

For “HSV-2 gD (aa1-275) with C-terminal His tag (domain or fragment)”, the EC50 was 1280 nM.
